Test results taken from patent publication US20210116443A1 (CREATIVE PROTEIN SOLUTIONS, published 2021).

Key:
[1] = molecular target: HIS-TreA^N-bCalm: N-terminally HIS-tagged N-terminal fragment of TreA^N with C-terminal fusion of bovine …; assay: split trehalase complementation with Ca2+, glucose read-out
[2] = molecular target: T1, HIS-TreAC-KI: N-terminally HIS-tagged fragment of TreA with C-terminal fusion leucine zipper (Escherichia coli O9:H4 (strain HS), UniProt A7ZZD1 97-565); assay: cell-based or functional assay
T1 sequence: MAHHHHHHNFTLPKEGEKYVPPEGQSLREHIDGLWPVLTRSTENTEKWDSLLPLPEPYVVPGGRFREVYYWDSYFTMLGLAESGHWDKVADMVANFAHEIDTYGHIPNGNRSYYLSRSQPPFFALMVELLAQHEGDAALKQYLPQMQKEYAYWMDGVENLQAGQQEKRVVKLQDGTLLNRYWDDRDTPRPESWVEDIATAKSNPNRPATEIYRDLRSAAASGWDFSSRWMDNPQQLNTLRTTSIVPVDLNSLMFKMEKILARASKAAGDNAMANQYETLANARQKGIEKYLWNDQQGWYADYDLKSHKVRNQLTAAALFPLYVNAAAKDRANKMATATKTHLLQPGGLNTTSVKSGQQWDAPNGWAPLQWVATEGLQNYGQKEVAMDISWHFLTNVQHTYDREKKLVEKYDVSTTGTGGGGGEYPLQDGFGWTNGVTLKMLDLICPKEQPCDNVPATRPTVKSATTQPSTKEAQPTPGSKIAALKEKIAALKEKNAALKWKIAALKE

[3] = molecular target: T2, HIS-TreAC-EI: N-terminally HIS-tagged fragment of TreA with C-terminal fusion leucine zipper (Escherichia coli O9:H4 (strain HS), UniProt A7ZZD1 97-565); assay: split trehalase complementation, non-complementary zippers Ei+Ei (FIG. 24A)
T2 sequence: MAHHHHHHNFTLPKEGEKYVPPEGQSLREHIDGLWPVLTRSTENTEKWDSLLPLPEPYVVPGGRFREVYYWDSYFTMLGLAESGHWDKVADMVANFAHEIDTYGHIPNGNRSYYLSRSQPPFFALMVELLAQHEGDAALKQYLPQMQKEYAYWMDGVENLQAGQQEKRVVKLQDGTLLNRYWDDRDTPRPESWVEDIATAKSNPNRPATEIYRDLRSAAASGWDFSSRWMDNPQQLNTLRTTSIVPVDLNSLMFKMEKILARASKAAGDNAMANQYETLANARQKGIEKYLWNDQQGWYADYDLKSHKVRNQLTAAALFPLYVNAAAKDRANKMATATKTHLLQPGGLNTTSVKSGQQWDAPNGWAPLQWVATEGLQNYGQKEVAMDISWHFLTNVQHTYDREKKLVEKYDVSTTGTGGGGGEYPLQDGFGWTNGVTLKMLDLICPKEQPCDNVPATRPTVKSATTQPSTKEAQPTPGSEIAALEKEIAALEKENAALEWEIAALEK

[4] = molecular target: T1, HIS-TreAC-KI: N-terminally HIS-tagged …; assay: split trehalase complementation, non-complementary zippers Ki+Ki (FIG. 24A)
[5] = molecular target: T3, HIS-TreAC: N-terminally HIS-tagged C-terminal fragment of TreA (Escherichia coli O9:H4 (strain HS), UniProt A7ZZD1 97-565); assay: split trehalase complementation, 24 h with trehalose, Benedict's reagent (FIG. 7)
T3 construct: Split E. coli trehalase fragment; also called HIS-tagged TreA^C
T3 sequence: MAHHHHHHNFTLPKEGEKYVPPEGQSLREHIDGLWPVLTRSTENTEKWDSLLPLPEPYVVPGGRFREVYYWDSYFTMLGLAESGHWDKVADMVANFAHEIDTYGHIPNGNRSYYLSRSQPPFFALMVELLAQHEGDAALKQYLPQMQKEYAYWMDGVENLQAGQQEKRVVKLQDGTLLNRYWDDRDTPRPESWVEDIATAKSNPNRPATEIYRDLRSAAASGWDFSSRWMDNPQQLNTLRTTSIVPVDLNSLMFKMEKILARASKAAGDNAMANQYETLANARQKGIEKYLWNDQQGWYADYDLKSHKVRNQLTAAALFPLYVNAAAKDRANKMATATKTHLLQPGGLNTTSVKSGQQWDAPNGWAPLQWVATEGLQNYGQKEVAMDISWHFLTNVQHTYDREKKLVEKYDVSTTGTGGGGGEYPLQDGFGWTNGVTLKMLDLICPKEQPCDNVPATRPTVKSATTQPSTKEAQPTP

[6] = molecular target: T4, TreAC-HIS: C-terminally HIS-tagged C-terminal fragment of TreA (Escherichia coli O9:H4 (strain HS), UniProt A7ZZD1 96-565); assay: as above
T4 construct: Split E. coli trehalase fragment; also called HIS-tagged TreA^C
T4 sequence: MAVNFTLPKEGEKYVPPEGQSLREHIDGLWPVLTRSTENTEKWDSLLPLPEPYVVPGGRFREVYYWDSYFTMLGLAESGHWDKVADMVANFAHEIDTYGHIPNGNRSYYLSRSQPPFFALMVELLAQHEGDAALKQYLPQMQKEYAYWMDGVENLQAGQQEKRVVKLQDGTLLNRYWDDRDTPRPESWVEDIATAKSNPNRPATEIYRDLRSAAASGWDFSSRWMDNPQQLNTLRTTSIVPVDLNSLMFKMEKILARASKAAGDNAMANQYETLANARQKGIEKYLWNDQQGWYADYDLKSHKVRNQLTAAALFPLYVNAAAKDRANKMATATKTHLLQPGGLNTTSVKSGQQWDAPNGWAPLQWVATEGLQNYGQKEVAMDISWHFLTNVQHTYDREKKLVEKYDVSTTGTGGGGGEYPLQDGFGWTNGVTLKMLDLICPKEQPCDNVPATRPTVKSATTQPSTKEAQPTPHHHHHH

B1: CaMKIIp-TreA^C-HIS: CaMKII peptide N-terminally fused to the C-terminally HIS-tagged C-terminal fragment of TreA (other)
chain: MARRKLKGAILTTMLATRNFVDNFTLPKEGEKYVPPEGQSLREHIDGLWPVLTRSTENTEKWDSLLPLPEPYVVPGGRFREVYYWDSYFTMLGLAESGHWDKVADMVANFAHEIDTYGHIPNGNRSYYLSRSQPPFFALMVELLAQHEGDAALKQYLPQMQKEYAYWMDGVENLQAGQQEKRVVKLQDGTLLNRYWDDRDTPRPESWVEDIATAKSNPNRPATEIYRDLRSAAASGWDFSSRWMDNPQQLNTLRTTSIVPVDLNSLMFKMEKILARASKAAGDNAMANQYETLANARQKGIEKYLWNDQQGWYADYDLKSHKVRNQLTAAALFPLYVNAAAKDRANKMATATKTHLLQPGGLNTTSVKSGQQWDAPNGWAPLQWVATEGLQNYGQKEVAMDISWHFLTNVQHTYDREKKLVEKYDVSTTGTGGGGGEYPLQDGFGWTNGVTLKMLDLICPKEQPCDNVPATRPTVKSATTQPSTKEAQPTPHHHHHH
notes: also called MaMKII peptide fused to C-terminal fragment of TreA
Question: Does B1 bind [1]?
Answer: Result: binds

B2: HIS-TreAN-EI: N-terminally HIS-tagged N-terminal fragment of TreA with C-terminal fusion with leucine zipper (other)
chain: MAHHHHHHEETPVTPQPPDILLGPLFNDVQNAKLFPDQKTFADAVPNSDPLMILADYRMQQNQSGFDLRHFVNVNFTLPKEGEKYVPGSVPGSEIAALEKEIAALEKENAALEWEIAALEK
Question: With B2 as the binder, how does the “glucose signal over 3 h, lyophilized fusions resuspended in acidified bovine blood or milk (glucose strips)” value [2] read?
Answer: Its value is 2 fold.

Question: Does B2 bind [3]?
Answer: Result: no binding

B3: HIS-TreAN-KI: N-terminally HIS-tagged N-terminal fragment of TreA with C-terminal fusion with leucine zipper (other)
chain: MAHHHHHHEETPVTPQPPDILLGPLFNDVQNAKLFPDQKTFADAVPNSDPLMILADYRMQQNQSGFDLRHFVNVNFTLPKEGEKYVPGSVPGSKIAALKEKIAALKEKNAALKWKIAALKE
Question: Does B3 bind [4]?
Answer: Result: no binding

B4: TreAN-HIS: C-terminally HIS-tagged N-terminal fragment of TreA (w/o signal peptide) (other)
chain: MEETPVTPQPPDILLGPLFNDVQNAKLFPDQKTFADAVPNSDPLMILADYRMQQNQSGFDLRHFVNVNFTLPKEGEKYVPHHHHHH
notes: Split E. coli trehalase fragment; also called HIS-tagged TreA^N
Question: Which results are given for B4?
Answer: binding result [5]: no binding; binding result [6]: no binding
